Several values for one entry are separate records, joined by “and”; a condition that tells them apart may be missing. Identical values can stand only once. Values belong to the binder of their own block, whether it stands above or below them.
Experiments:
murine CTLA4 (murine) [1] = molecular target: murine CTLA4 (murine) (UniProt P09793); experiment: ELISA on coated CTLA4, source Mouse
murine CTLA4 (murine) [2] = molecular target: murine CTLA4 (murine) (UniProt P09793); experiment: ELISA, coat murine CTLA4 0.5 ug/ml; antibody 1 ug/ml
murine CTLA4 (murine) [3] = molecular target: murine CTLA4 (murine) (UniProt P09793); experiment: ELISA, coat murine CTLA4 0.5 ug/ml; antibody 0 ug/ml (blank)
murine CTLA4 (murine) [4] = molecular target: murine CTLA4 (murine) (UniProt P09793); experiment: ELISA, coat murine CTLA4 0.5 ug/ml; antibody 0.03 ug/ml
murine CTLA4 (murine) [5] = molecular target: murine CTLA4 (murine) (UniProt P09793); experiment: ELISA, coat murine CTLA4 0.5 ug/ml; antibody 0.001 ug/ml
murine CTLA4 (murine) [6] = molecular target: murine CTLA4 (murine) (UniProt P09793); experiment: ELISA, coat murine CTLA4 0.5 ug/ml; antibody 0.01 ug/ml
murine CTLA4 (murine) [7] = molecular target: murine CTLA4 (murine) (UniProt P09793); experiment: ELISA, coat murine CTLA4 0.5 ug/ml; antibody 0.003 ug/ml
murine CTLA4 (murine) [8] = molecular target: murine CTLA4 (murine) (UniProt P09793); experiment: ELISA, coat murine CTLA4 0.5 ug/ml; antibody 0.1 ug/ml
murine CTLA4 (murine) [9] = molecular target: murine CTLA4 (murine) (UniProt P09793); experiment: ELISA, coat murine CTLA4 0.5 ug/ml; antibody 0.3 ug/ml
murine CTLA4 (murine) [10] = molecular target: murine CTLA4 (murine) (UniProt P09793); experiment: ELISA on coated CTLA4, source taken as Mouse; second unlabelled line under 8D2 / Mouse; the run in which 10D1 gave […] and 11.2.1 was not measured
murine CTLA4 (murine) [11] = molecular target: murine CTLA4 (murine) (UniProt P09793); experiment: ELISA on coated CTLA4, source taken as Mouse

EC50 (murine CTLA4 (murine) [1]): 0.025 nM
B1: humanized antibody 8D2H1L1 (antibody, V domains shown)
VH: EVQLVESGGGLVQPGGSMRLSCAASGFTFSDNWMNWVRQAPGKGLEWLAQIRNKPYNYETYYSDSVKGRFTISRDDSKNSVYLQMNSLKTEDTGVYYCTAQFAYWGQGTLVTVSS
VL: DIQMTQSPSSLSASVGDRVTITCRTSENIYGGLNWYQRKQGKSPKLLIYGATNLASGMSSRFSGSGSGTDYTLKISSLHPDDVATYYCQNVLRSPFTFGSGTKLEIK

absorbance at 450 nm (murine CTLA4 (murine) [2]): 2.82 and 2.68 | absorbance at 450 nm (murine CTLA4 (murine) [3]): 0.063 and 0.052 | absorbance at 450 nm (murine CTLA4 (murine) [4]): 2.34 and 2.38 | absorbance at 450 nm (murine CTLA4 (murine) [5]): 0.358 and 0.355 | absorbance at 450 nm (murine CTLA4 (murine) [6]): 1.61 and 1.56 | absorbance at 450 nm (murine CTLA4 (murine) [7]): 0.784 and 0.76 | absorbance at 450 nm (murine CTLA4 (murine) [8]): 2.75 and 2.72 | EC50 (murine CTLA4 (murine) [1]): 0.015 nM | absorbance at 450 nm (murine CTLA4 (murine) [9]): 2.81 and 2.76 | EC50 (murine CTLA4 (murine) [10]): 0.071 nM
B2: monoclonal antibody 8D2 (antibody, V domains shown)
VH: EVKLDETGGGLVQPGRPMKLSCVASGFTFSDNWMNWVRQSPEKGLEWLAQIRNKPYNYETYYSDSVKGRFTISRDDSKSSVYLQMNNLRGEDMGIYYCTAQFAYWGQGTLVTVSA
VL: DIQMTQSPASLSASVGETVTITCGTSENIYGGLNWYQRKQGKSPQLLIFGATNLADGMSSRFSGSGSGRQYSLKISSLHPDDVATYYCQNVLRSPFTFGSGTKLEI

absorbance at 450 nm (murine CTLA4 (murine) [2]): 2.67 and 2.77 | absorbance at 450 nm (murine CTLA4 (murine) [3]): 0.053 and 0.046 | EC50 (murine CTLA4 (murine) [11]): 0.085 nM | absorbance at 450 nm (murine CTLA4 (murine) [4]): 2.31 and 2.26 | absorbance at 450 nm (murine CTLA4 (murine) [5]): 0.315 and 0.321 | absorbance at 450 nm (murine CTLA4 (murine) [6]): 1.4 and 1.45 | absorbance at 450 nm (murine CTLA4 (murine) [7]): 0.662 and 0.674 | absorbance at 450 nm (murine CTLA4 (murine) [8]): 2.8 and 2.69 | EC50 (murine CTLA4 (murine) [1]): 0.015 nM | absorbance at 450 nm (murine CTLA4 (murine) [9]): 2.69 and 2.73
B3: 8D2 recombinant antibody, 8D2(Re) (antibody, V domains shown)
VH: B2 VH
VL: B2 VL

Reference: patent US20260166139A1
